According to article PMC8584343, “Probing the Structural Dynamics of the Activation Gate of KcsA Using Homo-FRET Measurements” (International Journal of Molecular Sciences, 2021):

Columns and labels:
[1] = biological target: the molecule itself; experiment: SDS-PAGE; oligomeric status of the purified protein checked by SDS-PAGE (13.5%)
[2] = biological target: the molecule itself; experiment: FRET or BRET; homo-FRET among TMR dyes on C116 of different subunits, read by steady-state and time-resolved fluorescence anisotropy; detergent-solubilised protein, 6 µM (monomer based), 5 mM DDM, 200 mM KCl (also RbCl or NaCl), pH 3.5-7.0, 25 °C; D:P 0.05 to 0.60

| Protein | stoichiometry N [1] | binding result [2] |
| --- | --- | --- |
| TMR-labeled G116C W26, 68, 87, 113F KcsA (full-length) (natural protein, S. lividans, UniProt P0A334 1-160, looked up, tetramethylrhodamine-5-maleimide (TMR) conjugated to cysteine 116; final dye-to-protein molar ratio D:P 0.05 to 0.60, so not every subunit carries a dye, KcsA potassium channel from S. lividans, full-length subunit, with four of the five Trp mutated to Phe (W67 left) and G116C for labelling; Homotetrameric channel; Plasmids pQE-60 and pQE-1 are named for G116C W67 and G116C WT; also called TMR-labeled G116C W67 KcsA; TMR conjugated G116C W67 KcsA; source: E. coli M15 (pRep4), purified (IMAC), labelled with tetramethylrhodamine-5-maleimide, …) MPPMLSGLLARLVKLLLGRHGSALHFRAAGAATVLLVIVLLAGSYLAVLAERGAPGAQLITYPRALWFSVETATTVGYGDLYPVTLFGRLVAVVVMVAGITSFGLVTAALATFFVCREQERRGHFVRHSEKAAEEAYTRTTRALHERFDRLERMLDDNRR | 4 |  |
| C-terminal truncated (Δ125) TMR-labeled G116C W67 KcsA (domain or fragment, S. lividans, UniProt P0A334 1-124, looked up, tetramethylrhodamine-5-maleimide (TMR) conjugated to cysteine 116; D:P = 0.60, KcsA potassium channel from S. lividans after removal of the C-terminal domain (amino acids 125–160) by chymotrypsin; W67 background with G116C; The limit 124 follows from the stated removal of amino acids 125–160; If the His tag stood at the C-terminus it would be lost with the cleaved fragment; also called truncated protein; proteolytically cleaved TMR-labeled G116C W67 KcsA) MPPMLSGLLARLVKLLLGRHGSALHFRAAGAATVLLVIVLLAGSYLAVLAERGAPGAQLITYPRALWFSVETATTVGYGDLYPVTLFGRLVAVVVMVAGITSFGLVTAALATFFVCREQERRGH |  | binds |
